Experimental data: publication PMC6527350 (Journal of molecular biology, 2019)

Molecular target: the molecule itself
Assay: FRET or BRET

B1: PCNA-WC2-AEDANS (human PCNA N107W-T185C-C27M-W28F-C62M-C81S-C148S-C135S-C162S, labelled with AEDANS at C185) (natural protein)
chain: MFEARLVQGSILKKVLEALKDLINEAMFDISSSGVNLQSMDSSHVSLVQLTLRSEGFDTYRMDRNLAMGVNLTSMSKILKSAGNEDIITLRAEDNADTLALVFEAPWQEKVSDYEMKLMDLDVEQLGIPEQEYSSVVKMPSGEFARISRDLSHIGDAVVISSAKDGVKFSASGELGNGNIKLSQCSNVDKEEEAVTIEMNEPVQLTFALRYLNFFTKATPLSSTVTLSMSADVPLVVEYKIADMGHLKYYLAPKIEDEEGS
modifications: AEDANS on the cysteine at 185 (T185C), labelled with IAEDANS
  binding result: binds
